The source of these data is patent US20200230057A1, “Pharmaceutical Compositions, Methods for Preparation using Lipid Vesicle Particles of Defined Size, and Uses Thereof” (IMMUNOVACCINE TECHNOLOGIES INC., priority 2017, published 2020).

Where “and” joins values, the source holds several entries; their conditions need not be identical. Identical values can stand only once. Like-named read-outs stand apart in the source and are kept apart here.

Data set [1] is described as follows: HPLC peptide recovery before and after freeze-drying.
Method: The composition prepared as described in Example 4, containing 14 neoantigens and the A16L T-helper peptide, was subjected to HPLC analysis to evaluate the peptide stability before and after freeze-drying.
Experimental Conditions: • IPQC Solutions: Dilute the IPQC solutions with Methanol and then with Mobile Phase A, e.g. as follows: • 100 mg In-Process Testing Solution • +450 μL Methanol, mix • +450 μL Mobile Phase A, mix • Mix by vortexing. Samples containing lipids will be slightly hazy. Dilution factor=10×. • Lyophilisates (for Release and Stability Testing): Solubilize the lyophilisate with Ultrapure lab water. Add 3-4 glass beads and vortex vigorously for 1 minute to assure complete homogenization. Dilute the solution with Methanol and subsequently with Mobile Phase A, e.g. as follows: • 100 mg In-Process Testing Solution • +450 μL Methanol, mix • +450 μL Mobile Phase A, mix • Mix by vortexing. The sample preparations will be slightly hazy. Dilution factor=20×.
The dried preparations were solubilized in water for HPLC analysis. T=0 is the day in which the samples were removed from the freeze-dryer. T=1M and T=3M are 1 month and 3 months after T=0, respectively, with the dried preparation having been stored at −20° C.
Another data set has as its system C57BL/6NCrl mice. The experiment in a line: IFN-gamma ELISPOT of splenocytes eight days after single vaccination. It is filed as in vivo. As to conditions: oil-based composition with 14 neoantigens, single administration, response to the named neoantigen.
[2] abbreviates: After freeze dry T = 1M, stored at −20° C.
Where [3] appears, read: After freeze dry T = 3M, stored at −20° C.

For “CGTAFFINFIAIYHHASRAIPFGTMVA (Mut36) [Mut 36]”, the “Amount from non-validated HPLC assay” value in data set [1] (After freeze dry T = 0) came out at 0.19 mg/mL; in data set [1] (setting [2]), 0.25 mg/mL; in data set [1] (setting [3]), 0.31 mg/mL; in data set [1] (Before freeze dry) it was 0.47 mg/mL.

Take “ECRITSNFVIPSEYWVEEKEEKQKLIQ (Mut45) [Mut 45]”: the “Amount from non-validated HPLC assay” value is given as 0.44 mg/mL in data set [1] (After freeze dry T = 0), 0.42 mg/mL in data set [1] (setting [2]), 0.46 mg/mL in data set [1] (setting [3]) and 0.47 mg/mL in data set [1] (Before freeze dry).

Take “EFKHIKAFDRTFANNPGPMVVFATPGM (Mut44) [Mut 44]”: the “Amount from non-validated HPLC assay” value is 0.47 mg/mL in data set [1] (After freeze dry T = 0), 0.44 mg/mL in data set [1] (setting [2]), 0.50 mg/mL in data set [1] (setting [3]) and 0.51 mg/mL in data set [1] (Before freeze dry). Also, in the data set with C57BL/6NCrl mice, the “Improvement of immune response over comparative aqueous composition” value was “about 3 fold”.

On to FRRKAFLHWYTGEAMDEMEFTEAESNM [Mut 20], for which, in data set [1], the “Amount from non-validated HPLC assay” value was 0.41 mg/mL and 0.47 mg/mL and 0.54 mg/mL and 0.42 mg/mL.

With “GFSQPLRRLVLHVVSAAQAERLARAEE (Mut50) [Mut 50]”, the “Amount from non-validated HPLC assay” value worked out at 0.42 mg/mL in data set [1] (After freeze dry T = 0), 0.44 mg/mL in data set [1] (setting [2]), 0.46 mg/mL in data set [1] (setting [3]) and 0.42 mg/mL in data set [1] (Before freeze dry).

Consider “IPSGTTILNCFHDVLSGKLSGGSPGVP (Mut29A) [Mut 29a]”, for which the “Amount from non-validated HPLC assay” value is 0.38 mg/mL in data set [1] (After freeze dry T = 0), 0.34 mg/mL in data set [1] (setting [2]), 0.35 mg/mL in data set [1] (setting [3]) and 0.54 mg/mL in data set [1] (Before freeze dry).

“NIEGIDKLTQLKKPFLVNNKINKIENI (Mut28) [Mut 28]”: the “Amount from non-validated HPLC assay” value was 0.50 mg/mL in data set [1] (After freeze dry T = 0), 0.50 mg/mL in data set [1] (setting [2]), 0.51 mg/mL in data set [1] (setting [3]) and 0.53 mg/mL in data set [1] (Before freeze dry).

On to “PKPDFSQLQRNILPSNPRVTRFHINWD (Mut22) [Mut 22]”, for which the “Amount from non-validated HPLC assay” value was 0.51 mg/mL in data set [1] (After freeze dry T = 0), 0.47 mg/mL in data set [1] (setting [2]), 0.54 mg/mL in data set [1] (setting [3]) and 0.54 mg/mL in data set [1] (Before freeze dry).

Regarding “PSKPSFQEFVDWENVSPELNSTDQPFL (Mut30) [Mut 30]”, the “Amount from non-validated HPLC assay” value is 0.51 mg/mL in data set [1] (After freeze dry T = 0), 0.51 mg/mL in data set [1] (setting [2]), 0.56 mg/mL in data set [1] (setting [3]) and 0.53 mg/mL in data set [1] (Before freeze dry).

For the sequence “SFACLRQPSQGPTVGVKGGAAGGGYAQ (Mut29B) [Mut 29b]”, the “Amount from non-validated HPLC assay” value in data set [1] (After freeze dry T = 0) amounted to 0.48 mg/mL; in data set [1] (setting [2]), 0.44 mg/mL; in data set [1] (setting [3]) it was 0.48 mg/mL; in data set [1] (Before freeze dry), 0.56 mg/mL.

In the case of “SHCHWNDLAVIPAGVVHNWDFEPRKVS (Mut48) [Mut 48]”, the “Amount from non-validated HPLC assay” value in data set [1] (After freeze dry T = 0) was found to be 0.38 mg/mL; in data set [1] (setting [2]) it was 0.37 mg/mL; in data set [1] (setting [3]), 0.41 mg/mL; in data set [1] (Before freeze dry), 0.47 mg/mL.

Take “STANYNTSHLNNDVWQIFENPVDWKEK (Mut25) [Mut 25]”: the “Amount from non-validated HPLC assay” value in data set [1] (After freeze dry T = 0) was 0.54 mg/mL; in data set [1] (setting [2]), 0.50 mg/mL; in data set [1] (setting [3]) it was 0.56 mg/mL; in data set [1] (Before freeze dry), 0.56 mg/mL. In addition, the “Improvement of immune response over comparative aqueous composition” value with C57BL/6NCrl mice was “about 5 fold”.

Take “TAVITPPTTTTKKARVSTPKPATPSTD (Mut24) [Mut 24]”: the “Amount from non-validated HPLC assay” value is listed as 0.44 mg/mL in data set [1] (After freeze dry T = 0), 0.38 mg/mL in data set [1] (setting [2]), 0.37 mg/mL in data set [1] (setting [3]) and 0.56 mg/mL in data set [1] (Before freeze dry).

With “VVDRNPQFLDPVLAYLMKGLCEKPLAS (Mut17) [Mut 17]”, the “Amount from non-validated HPLC assay” value was 0.27 mg/mL in data set [1] (After freeze dry T = 0), 0.23 mg/mL in data set [1] (setting [2]), 0.26 mg/mL in data set [1] (setting [3]) and 0.51 mg/mL in data set [1] (Before freeze dry).
